Tests used:
[1] = biological target: T1, human folate receptor alpha (hFRα), recombinant protein (human, UniProt P15328 25-233); experiment: ELISA on recombinant human FOLR1, cMyc tag detection, normalised binding, non-linear fit
T1 construct: Bought recombinant proteins (His-tagged, or biotinylated via Avi-tag, e.g. AcroBiosystems FO1-H82E2, F01-H52H1); also called hFOLR1; huFOLR1
Method: (§1) Data were normalized and technical replicates were plotted as mean±SD. Data were fitted by non-linear regression and the half-maximal effective concentration ^{∘}EC50) was calculated using GraphPad Prism 9 software. ^{∘}FIG. 1C and FIG. 1D) Binding affinity determination of anti-FOLR1 VHHs for native FOLR1. Mouse ^{∘}FIG. 1C) or human FOLR1 FIG. 1D) was overexpressed on HEK293T cells and binding of the anti-FOLR1 VHHs was assessed using flow cytometry. The mean fluorescence intensity ^{∘}MFI) of the phycoerythrin signal was plotted for each VHH concentration. Data were fitted by non-linear regression using GraphPad Prism 9 software. ^{∘}FIG. 1E) Determination of the competition of representative family members with folic acid ^{∘}FA) using ELISA. Mouse FOLR1 was coated on the plate and was pre-incubated with or without 100 μM FA before adding the VHHs. Data were fitted by non-linear regression using GraphPad Prism 9 software.
(§2) In a first step, binding affinity and cross-reactivity of the purified VHHs to human and mouse FRα was assessed by ELISA, using detection of the cMyc tag ^{∘}FIG. 1A-B). […] 2HFO19 ^{∘}family 1) was the best binder of all tested VHHs to both mouse and human FRα with an EC₅₀ of 0.1 nM and 0.4 nM respectively ^{∘}FIG. 1A-B).

[2] = biological target: T1, human folate receptor alpha (hFRα), …; experiment: BLI, FRα on AR2G biosensors, 1:1 model
Method: (§3) As a next step, the kinetic binding constants were determined using BLI ^{∘}Table 3). […] Similar to the ELISA results ^{∘}FIG. 1A-B), higher binding affinities were measured for mouse FRα than human FRα, with KD values […] one order of magnitude in most cases. […] For 3HFO28, binding to human FRα could not be confirmed by BLI, and this VHH was excluded from further characterization.
(§4) The kinetic parameters were calculated using a 1:1 binding model.

[3] = biological target: T2, mouse folate receptor alpha (mFRα), recombinant protein (mouse, UniProt P35846 25-232); experiment: BLI, FRα on AR2G biosensors, 1:1 model
T2 construct: Bought recombinant proteins (e.g. biotinylated, Acro Biosystems FO1-M82E9); also called mFOLR1; Ms FOLR1
Method: as §3, §4

human FOLR1/2 chimera 4 = biological target: T3, human FOLR1/2 chimera 4 (human, UniProt P15328 25-234); experiment: flow cytometry on transiently transfected HEK293T cells, mouse anti-His then anti-mouse-PE (B575-A)
T3 construct: Region of amino acids 140-150 of hFOLR1 replaced by hFOLR2
Method: Chimera 1 SEQ ID No. 67) and 7 ^{∘}Ch7; SEQ ID No. 73) also contain an additional residue change at a separate location. […] HEK293T cells were transfected with hFOLR1, hFOLR2, one of the hFOLR1/2 chimeric constructs ^{∘}FIG. 2B) or single residue mutants ^{∘}FIG. 2C). Binding of VHHs 2HFO19, 2HFO42, 3MFR60, and a mouse anti-FOLR1 monoclonal antibody ^{∘}mAb) was detected using a mouse anti-His tag antibody for the VHHs followed by an anti-mouse-phycoerythrin antibody. All VHHs were tested at a concentration of 200 nM and untransfected cells were used as a negative control. The colors used for the VHHs represent the different CDR3 families; blue: family 1, green: family 3, grey: family 10.
To identify the exact region in which the VHHs bind to FRα, epitope mapping experiments were performed. Since the VHHs are able to bind human FRα, but not FRβ, we generated seven human FOLR1/2 chimeric constructs where regions of human FOLR1 were replaced by the corresponding human FOLR2 ^{∘}FRβ) regions ^{∘}FIG. 2A): chimera 1 SEQ ID No. 67), chimera 2 ^{∘}SEQ ID No. 68), chimera 3 ^{∘}SEQ ID No. 69), chimera 4 ^{∘}SEQ ID No. 70), chimera 5 ^{∘}SEQ ID No. 71), chimera 6 ^{∘}SEQ ID No. 72) and chimera 7 ^{∘}SEQ ID No. 73). Three additional chimera 1 constructs were made: chimera 1a ^{∘}replacing fragment 31-40; SEQ ID No. 74), chimera 1b ^{∘}replacing fragment 41-50; SEQ ID No. 75) and chimera 1c ^{∘}replacing fragment 51-64; SEQ ID NO. 76). The constructs were transiently transfected into HEK293T cells and dose-dependent binding of the VHHs to the wild-types FRα and FRβ ^{∘}WTs) or the chimeric constructs was assessed via flow cytometry via detection of the tag ^{∘}FIG. 2B). […] Different anti-FRα VHHs were able to bind to cell-expressed FRα-FRβ chimeras to a similar level as WT FRα, with the exception of chimera 4 ^{∘}SEQ ID No. 70) where the binding was completely abolished for all VHHs.

[4] = biological target: T2, mouse folate receptor alpha (mFRα), …; experiment: ELISA on coated mouse FOLR1, without and with 100 µM folic acid (series not separable)
Method: as §1
(§5) As interference with the endogenous transport of folates via FRα could have serious implications on brain homeostasis, competition between representative family members and FA for mouse FRα binding was assessed via ELISA ^{∘}FIG. 1E).

[5] = biological target: T2, mouse folate receptor alpha (mFRα), …; experiment: ELISA on recombinant mouse FOLR1, cMyc tag detection, normalised binding, non-linear fit
Method: as §1, §2

[6] = biological target: T2, mouse folate receptor alpha (mFRα), …; experiment: ELISA on coated mouse FOLR1, without folic acid
Method: as §1, §5

[7] = biological target: T2, mouse folate receptor alpha (mFRα), …; experiment: ELISA on coated mouse FOLR1 pre-incubated with 100 µM folic acid
Method: as §1, §5

[8] = biological target: T1, human folate receptor alpha (hFRα), …; experiment: ELISA on recombinant FRα, cMyc tag detection
Method: as §1, §2

[9] = biological target: T2, mouse folate receptor alpha (mFRα), …; experiment: ELISA on recombinant FRα, cMyc tag detection
Method: as §1, §2

T3 sequence (P15328 other isoform, or with tags, fused parts or gaps mutant limits assumed): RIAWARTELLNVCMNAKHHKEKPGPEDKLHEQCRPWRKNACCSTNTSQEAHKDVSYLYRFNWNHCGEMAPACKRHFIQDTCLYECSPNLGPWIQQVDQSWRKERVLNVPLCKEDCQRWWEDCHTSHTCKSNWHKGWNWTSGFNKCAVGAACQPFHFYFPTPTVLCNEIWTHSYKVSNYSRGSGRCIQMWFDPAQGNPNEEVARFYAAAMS
T1 sequence (P15328 25-233 limits assumed): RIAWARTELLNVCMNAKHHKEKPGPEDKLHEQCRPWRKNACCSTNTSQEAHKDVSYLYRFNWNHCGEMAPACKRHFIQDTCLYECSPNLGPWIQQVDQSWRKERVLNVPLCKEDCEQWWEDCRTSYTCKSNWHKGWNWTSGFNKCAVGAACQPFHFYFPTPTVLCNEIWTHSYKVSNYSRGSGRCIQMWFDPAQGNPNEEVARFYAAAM
T2 sequence (P35846 25-232 limits assumed): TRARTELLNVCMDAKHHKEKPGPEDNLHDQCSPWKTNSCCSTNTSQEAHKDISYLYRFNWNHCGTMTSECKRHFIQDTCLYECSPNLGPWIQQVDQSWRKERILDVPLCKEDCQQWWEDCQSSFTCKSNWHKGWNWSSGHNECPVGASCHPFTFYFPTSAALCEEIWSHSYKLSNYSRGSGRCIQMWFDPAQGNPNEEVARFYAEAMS

Row | Binder | EC50 [1] [nM] | Kd [2] [nM] | koff [2] [s⁻¹] | kon [2] [M⁻¹ s⁻¹] | Kd [3] [nM] | koff [3] [s⁻¹] | kon [3] [M⁻¹ s⁻¹] | binding result (human FOLR1/2 chimera 4) | EC50 (read off the curve) [4] [nM] | EC50 [5] [nM] | EC50 (read off the curve) [6] [nM] | EC50 (read off the curve) [7] [nM] | EC50 [8] [nM] | EC50 [9] [nM]
1 | VHH 3MFR60 (family 10) (VHH) VHH: QVQLQESGGGLVQAGGSLRVSCAASGIIFSMNGMGWFRQAPGKQRELVASITSGGSTKYADSVKGRFTISRDNAKNTVYLQMNSLKPEDTAVYYCNIQFGSRWSTYWGQGTQVTVSS | 11.1 | 169 | 0.159 | 938000 | 2.59 | 0.00297 | 1.15e+06 | no binding (tested: 200 nM) | ~3 | 0.3 |  |  |  | 
2 | VHH 2HFO42 (family 3) (VHH, also called 2HF042; Nb42) VHH: QVQLQESGGGLVQAGGSLRLSCAASGSGFSGMIMGWYRQVPGKQRELVATVTSHGTTNYADSVKGRFTISRDNAKNTVLLQMNSLKPEDTAVYYCNAHFPGIYWGKGTQVTVSS | 10.4 | 274 | 0.0276 | 101000 | 23.8 | 0.00467 | 203000 | no binding (tested: 200 nM) |  | 0.2 | ~2 | 2 to 3 |  | 
3 | VHH 2HFO19 (family 1) (VHH, also called Nb19) VHH: QVQLQESGGGLVQPGGSLRVSCAASGFPFSTVYMSWVRQAPGKGLEWVSGINNDGGVIDYADSVKGRFTISRDNAKNTLYLQLNSLKPEDTALYFCARGRSFVATLSSSLRGQGTQVTVSS |  | 63.7 | 0.0149 | 233000 | 2.97 | 0.00393 | 1.32e+06 | no binding (tested: 200 nM) |  |  | ~1 | ~1 | 0.4 | 0.1
